# Reference: publication PMC10879569, “Major cardiovascular events under biologic psoriasis therapies: a 19-year real-world analysis of FAERS data” (Frontiers in Immunology, 2024)
# Legend:
# [1] = system: active psoriatic arthritis; conditions: in vivo; cited from earlier work
# psoriasis = conditions: in vivo; cited from earlier work
# [2] = in vivo; cited from earlier work
# [3] = system: patients with psoriasis indication; assay: FAERS disproportionality analysis (PRR and MGPS/EBGM) of MACEs reporting versus other psoriasis treatments; format: in vivo; conditions: compared among the biological classes
# Text: FAERS collects […] of drug adverse events reports worldwide submitted by health professionals, consumers, and manufacturers. We chose the FAERS dataset as the data source for this study, and the analytical period was from January 2004 to December 2022. To enhance the reliability and validity of our results, only records submitted by professional health workers (e.g., physicians, pharmacists, and other health professionals) were included. To avoid potential confounders in causality assessments such as indication, the analysis was refined by retaining only reports with an expanded psoriasis indication. The raw FAERS data were cleaned, mapped, de-duplicated, and normalized by SQL server Data Mining.
# The names are listed in Supplementary Table S1 .
# Inclusion of reports was limited to only those cases where a biologic drug was identified as “the primary suspect” or”secondary suspect”. The control groups were comprised of the population who were indicated with psoriasis and receiving other psoriasis systemic therapies except biological agents. […]
# This study is a case–non-case study. […] Disproportionality analysis (proportional reporting ratio, PRR) and MGPS were calculated to identify drug–event combinations with reporting rates higher than expected versus other drugs among patients with psoriasis indication. […]
# [4] = design: method as in PMID 22011907, PMID 21862748; conditions: 2011; cited from earlier work
substance,measurement,setting,value
Adalimumab,MACEs reported in the treatment group,[1],none
Ixekizumab,MACEs events reported in the treatment group,psoriasis,two
Risankizumab,cardiac disorders as share of serious adverse events suspected of being caused by the drug,[2],10.9%
Secukinumab,MACEs reported in the treatment group,[1],two
Ustekinumab,"reporting rate for the four SMQs (myocardial infarction, stroke, cardiac fatality, death)",[3],highest reporting rate for all four SMQs
briakinumab,"fate of clinical trials after reports of serious cardiovascular adverse events (e.g., myocardial infarction, cardiac death)",[4],discontinued before marketing
